The values below come from article PMC11338267, “Phosphoglycerate kinase is a central leverage point in Parkinson’s disease–driven neuronal metabolic deficits” (Science Advances, 2024).

The assay addresses T1, untagged PGK1 (phosphoglycerate kinase 1), cleaved from His-SUMO-PGK1 (UniProt P00558 1-417).
T1 construct: phosphoglycerate kinase 1 (PGK1), full-length protein; also called His-tagged SUMO-PGK1; cleaved PGK1; source: E. coli BL21 (DE3), purified (Ni-NTA, SUMO protease cleavage, second Ni-NTA flow-through, Superdex200 gel filtration)
T1 sequence (looked up): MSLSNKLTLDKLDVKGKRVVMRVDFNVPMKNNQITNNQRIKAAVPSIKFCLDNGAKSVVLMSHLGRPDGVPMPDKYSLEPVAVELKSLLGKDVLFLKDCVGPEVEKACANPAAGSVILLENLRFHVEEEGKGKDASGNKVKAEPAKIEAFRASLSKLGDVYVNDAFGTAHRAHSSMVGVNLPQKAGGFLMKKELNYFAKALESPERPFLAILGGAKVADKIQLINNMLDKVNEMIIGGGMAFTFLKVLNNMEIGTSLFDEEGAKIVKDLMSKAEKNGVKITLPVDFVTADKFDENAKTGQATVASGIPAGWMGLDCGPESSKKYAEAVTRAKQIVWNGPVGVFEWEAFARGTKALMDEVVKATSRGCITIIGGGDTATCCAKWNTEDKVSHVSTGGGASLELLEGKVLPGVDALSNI
The assay can be described thus: MST; His-DJ-1 labelled with RED-tris-NTA (10 ul of 100 nM added to each sample), PGK1 titrated in a 16-step 1:1 serial dilution from a 152 uM stock; PBS-T buffer; 30 min at room temperature in the dark; Monolith NT.115, 40% LED, medium MST power. Particulars: both partners purified.

B1: His-tagged DJ-1 full-length protein (natural protein, UniProt Q99497 1-189, looked up)
chain: MASKRALVILAKGAEEMETVIPVDVMRRAGIKVTVAGLAGKDPVQCSRDVVICPDASLEDAKKEGPYDVVVLPGGNLGAQNLSESAAVKEILKEQENRKGLIAAICAGPTALLAHEIGFGSKVTTHPLAKDKMMNGGHYTYSENRVEKDGLILTSRGPGTSFEFALAIVEALNGKEVAAQVKAPLVLKD
notes: DJ-1 (product of the PARK7 gene), full-length protein; For MST the His tag was labelled non-covalently with the dye RED-tris-NTA; also called His-DJ-1; PARK7/DJ-1; source: E. coli BL21 (DE3), purified (Ni-NTA, Superdex200 gel filtration)
As usually defined, the Kd is a measure of binding affinity in units of concentration. As to B1, the dissociation constant Kd was approximately 15 µM.
